In patent US20120142593A1 (Bayer, published 2012):

T1: recombinant mouse FcRn (mouse, UniProt Q61559 22-297; P01887 21-119, limits assumed)
T1 construct: also called mFcRn
T1 sequence (looked up) 1: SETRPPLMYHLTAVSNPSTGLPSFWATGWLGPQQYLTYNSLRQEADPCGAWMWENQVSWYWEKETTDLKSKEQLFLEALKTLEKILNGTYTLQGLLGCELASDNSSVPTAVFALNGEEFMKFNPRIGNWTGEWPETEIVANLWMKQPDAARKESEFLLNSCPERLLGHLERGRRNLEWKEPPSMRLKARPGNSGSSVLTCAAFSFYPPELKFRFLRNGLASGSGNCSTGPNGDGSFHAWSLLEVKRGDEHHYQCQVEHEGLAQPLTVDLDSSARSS
T1 sequence (looked up) 2: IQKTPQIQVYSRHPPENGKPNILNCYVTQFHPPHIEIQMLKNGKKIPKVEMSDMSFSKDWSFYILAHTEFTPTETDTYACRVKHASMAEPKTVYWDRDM


Legend:
[1] = biological target: human von Willebrand Factor (human) (UniProt P04275); test: Biacore SPR, human vWF immobilized on a CM-5 chip by amine coupling, full-length recombinant FVIII passed over as analyte
[2] = biological target: T2, human von Willebrand Factor (human, UniProt P04275 764-2813); test: Biacore SPR, human vWF immobilized on a CM-5 chip by amine coupling, BDD passed over as analyte
T2 construct: also called vWF; vWf
Description: (§1) Human vWF was immobilized onto a CM-5 chip by amine coupling. Two Factor VIII heterodimers (BDDFc+hinge and BDDFc−hinge), BDD (the Factor VIII protein from which BDDFc+hinge and BDDFc−hinge are derived), and full-length recombinant Factor VIII were passed over the surface of the chip at various concentrations (e.g., 1, 2, 4, 8, 16, and 25 nM).

[3] = biological target: T1, recombinant mouse FcRn; test: Biacore, mFcRn immobilized on CM-5 chip
Excerpt: The following example describes functional studies performed using the Biacore™ system to determine whether an FcRn binding epitope retains it ability to bind to FnRn when incorporated in a Factor VIII fusion heterodimer. For use in the Biacore™ test, recombinant mouse FcRn (mFcRn) protein was expressed in CHO-K1 cells and purified by mouse IgG-affinity chromatography. Mouse FcRn was immobilized onto a CM-5 chip by amine coupling. Two Factor VIII heterodimers (BDDFc+hinge and BDDFc−hinge), BDD (the Factor VIII protein from which BDDFc+hinge and BDDFc−hinge are derived), and full-length recombinant Factor VIII were passed over the surface of the chip at various concentrations (e.g., 1.5, 3, 6, 12, 25, and 50 nM). Binding of BDDFc±hinge Factor VIII fusion heterodimers to immobilized mFcRn was detected (FIG. 13).

[4] = biological target: T2, human von Willebrand Factor; test: Biacore, human vWF immobilized on CM-5 chip
Description: as §1

Kd [1] [nM]	Kd [2] [nM]	Kd [3] [nM]	Kd [4] [nM]	Molecule
0.657				full-length recombinant Factor VIII (from UniProt P00451 20-2351)
	0.53			B-domain deleted Factor VIII (BDD) (other, The protein circulates as a heavy chain and light chain heterodimer; also called BDD-FVIII; BDD Factor VIII) ATRRYYLGAVELSWDYMQSDLGELPVDARFPPRVPKSFPFNTSVVYKKTLFVEFTVHLFNIAKPRPPWMGLLGPTIQAEVYDTVVITLKNMASHPVSLHAVGVSYWKASEGAEYDDQTSQREKEDDKVFPGGSHTYVWQVLKENGPMASDPLCLTYSYLSHVDLVKDLNSGLIGALLVCREGSLAKEKTQTLHKFILLFAVFDEGKSWHSETKNSLMQDRDAASARAWPKMHTVNGYVNRSLPGLIGCHRKSVYWHVIGMGTTPEVHSIFLEGHTFLVRNHRQASLEISPITFLTAQTLLMDLGQFLLFCHISSHQHDGMEAYVKVDSCPEEPQLRMKNNEEAEDYDDDLTDSEMDVVRFDDDNSPSFIQIRSVAKKHPKTWVHYIAAEEEDWDYAPLVLAPDDRSYKSQYLNNGPQRIGRKYKKVRFMAYTDETFKTREAIQHESGILGPLLYGEVGDTLLIIFKNQASRPYNIYPHGITDVRPLYSRRLPKGVKHLKDFPILPGEIFKYKWTVTVEDGPTKSDPRCLTRYYSSFVNMERDLASGLIGPLLICYKESVDQRGNQIMSDKRNVILFSVFDENRSWYLTENIQRFLPNPAGVQLEDPEFQASNIMHSINGYVFDSLQLSVCLHEVAYWYILSIGAQTDFLSVFFSGYTFKHKMVYEDTLTLFPFSGETVFMSMENPGLWILGCHNSDFRNRGMTALLKVSSCDKNTGDYYEDSYEDISAYLLSKNNAIEPRSFSQNPPVLKRHQREITRTTLQSDQEEIDYDDTISVEMKKEDFDIYDEDENQSPRSFQKKTRHYFIAAVERLWDYGMSSSPHVLRNRAQSGSVPQFKKVVFQEFTDGSFTQPLYRGELNEHLGLLGPYIRAEVEDNIMVTFRNQASRPYSFYSSLISYEEDQRQGAEPRKNFVKPNETKTYFWKVQHHMAPTKDEFDCKAWAYFSDVDLEKDVHSGLIGPLLVCHTNTLNPAHGRQVTVQEFALFFTIFDETKSWYFTENMERNCRAPCNIQMEDPTFKENYRFHAINGYIMDTLPGLVMAQDQRIRWYLLSMGSNENIHSIHFSGHVFTVRKKEEYKMALYNLYPGVFETVEMLPSKAGIWRVECLIGEHLHAGMSTLFLVYSNKCQTPLGMASGHIRDFQITASGQYGQWAPKLARLHYSGSINAWSTKEPFSWIKVDLLAPMIIHGIKTQGARQKFSSLYISQFIIMYSLDGKKWQTYRGNSTGTLMVFFGNVDSSGIKHNIFNPPIIARYIRLHPTHYSIRSTLRMELMGCDLNSCSMPLGMESKAISDAQITASSYFTNMFATWSPSKARLHLQGRSNAWRPQVNNPKEWLQVDFQKTMKVTGVTTQGVKSLLTSMYVKEFLISSSQDGHQWTLFFQNGKVKVFQGNQDSFTPVVNSLDPPLLTRYLRIHPQSWVHQIALRMEVLGCEAQDLY
		3.75	0.908	BDDFc-hinge Factor VIII fusion heterodimer (Fc fusion, No signal peptide limits are stated on this entry; It is processed into a heavy chain-Fc chimera and a light chain; also called BDDmFc-hinge expression product; FVIII-Fc) ATRRYYLGAVELSWDYMQSDLGELPVDARFPPRVPKSFPFNTSVVYKKTLFVEFTDHLFNIAKPRPPWMGLLGPTIQAEVYDTVVITLKNMASHPVSLHAVGVSYWKASEGAEYDDQTSQREKEDDKVFPGGSHTYVWQVLKENGPMASDPLCLTYSYLSHVDLVKDLNSGLIGALLVCREGSLAKEKTQTLHKFILLFAVFDEGKSWHSETKNSLMQDRDAASARAWPKMHTVNGYVNRSLPGLIGCHRKSVYWHVIGMGTTPEVHSIFLEGHTFLVRNHRQASLEISPITFLTAQTLLMDLGQFLLFCHISSHQHDGMEAYVKVDSCPEEPQLRMKNNEEAEDYDDDLTDSEMDVVRFDDDNSPSFIQIRSVAKKHPKTWVHYIAAEEEDWDYAPLVLAPDDRSYKSQYLNNGPQRIGRKYKKVRFMAYTDETFKTREAIQHESGILGPLLYGEVGDTLLIIFKNQASRPYNIYPHGITDVRPLYSRRLPKGVKHLKDFPILPGEIFKYKWTVTVEDGPTKSDPRCLTRYYSSFVNMERDLASGLIGPLLICYKESVDQRGNQIMSDKRNVILFSVFDENRSWYLTENIQRFLPNPAGVQLEDPEFQASNIMHSINGYVFDSLQLSVCLHEVAYWYILSIGAQTDFLSVFFSGYTFKHKMVYEDTLTLFPFSGETVFMSMENPGLWILGCHNSDFRNRGMTALLKVSSCDKNTGDYYEDSYEDISAYLLSKNNAIEPRSFSQNVPEVSSVFIFPPKPKDVLTITLTPKVTCVVVDISKDDPEVQFSWFVDDVEVHTAQTQPREEQFNSTFRSVSELPIMHQDWLNGKEFKCRVNSAAFPAPIEKTISKTKGRPKAPQVYTIPPPKEQMAKDKVSLTCMITDFFPEDITVEWQWNGQPAENYKNTQPIMDTDGSYFVYSKLNVQKSNWEAGNTFTCSVLHEGLHNHHTEKSLSHSPGKSQNPPVLKRHQREITRTTLQSDQEEIDYDDTISVEMKKEDFDIYDEDENQSPRSFQKKTRHYFIAAVERLWDYGMSSSPHVLRNRAQSGSVPQFKKVVFQEFTDGSFTQPLYRGELNEHLGLLGPYIRAEVEDNIMVTFRNQASRPYSFYSSLISYEEDQRQGAEPRKNFVKPNETKTYFWKVQHHMAPTKDEFDCKAWAYFSDVDLEKDVHSGLIGPLLVCHTNTLNPAHGRQVTVQEFALFFTIFDETKSWYFTENMERNCRAPCNIQMEDPTFKENYRFHAINGYIMDTLPGLVMAQDQRIRWYLLSMGSNENIHSIHFSGHVFTVRKKEEYKMALYNLYPGVFETVEMLPSKAGIWRVECLIGEHLHAGMSTLFLVYSNKCQTPLGMASGHIRDFQITASGQYGQWAPKLARLHYSGSINAWSTKEPFSWIKVDLLAPMIIHGIKTQGARQKFSSLYISQFIIMYSLDGKKWQTYRGNSTGTLMVFFGNVDSSGIKHNIFNPPIIARYIRLHPTHYSIRSTLRMELMGCDLNSCSMPLGMESKAISDAQITASSYFTNMFATWSPSKARLHLQGRSNAWRPQVNNPKEWLQVDFQKTMKVTGVTTQGVKSLLTSMYVKEFLISSSQDGHQWTLFFQNGKVKVFQGNQDSFTPVVNSLDPPLLTRYLRIHPQSWVHQIALRMEVLGCEAQDLY
		2.48	0.465	BDDFc+hinge Factor VIII fusion heterodimer (Fc fusion, also called BDDmFc+hinge expression product) ATRRYYLGAVELSWDYMQSDLGELPVDARFPPRVPKSFPFNTSVVYKKTLFVEFTDHLFNIAKPRPPWMGLLGPTIQAEVYDTVVITLKNMASHPVSLHAVGVSYWKASEGAEYDDQTSQREKEDDKVFPGGSHTYVWQVLKENGPMASDPLCLTYSYLSHVDLVKDLNSGLIGALLVCREGSLAKEKTQTLHKFILLFAVFDEGKSWHSETKNSLMQDRDAASARAWPKMHTVNGYVNRSLPGLIGCHRKSVYWHVIGMGTTPEVHSIFLEGHTFLVRNHRQASLEISPITFLTAQTLLMDLGQFLLFCHISSHQHDGMEAYVKVDSCPEEPQLRMKNNEEAEDYDDDLTDSEMDVVRFDDDNSPSFIQIRSVAKKHPKTWVHYIAAEEEDWDYAPLVLAPDDRSYKSQYLNNGPQRIGRKYKKVRFMAYTDETFKTREAIQHESGILGPLLYGEVGDTLLIIFKNQASRPYNIYPHGITDVRPLYSRRLPKGVKHLKDFPILPGEIFKYKWTVTVEDGPTKSDPRCLTRYYSSFVNMERDLASGLIGPLLICYKESVDQRGNQIMSDKRNVILFSVFDENRSWYLTENIQRFLPNPAGVQLEDPEFQASNIMHSINGYVFDSLQLSVCLHEVAYWYILSIGAQTDFLSVFFSGYTFKHKMVYEDTLTLFPFSGETVFMSMENPGLWILGCHNSDFRNRGMTALLKVSSCDKNTGDYYEDSYEDISAYLLSKNNAIEPRSFSQNVPRDCGCKPCICTVPEVSSVFIFPPKPKDVLTITLTPKVTCVVVDISKDDPEVQFSWFVDDVEVHTAQTQPREEQFNSTFRSVSELPIMHQDWLNGKEFKCRVNSAAFPAPIEKTISKTKGRPKAPQVYTIPPPKEQMAKDKVSLTCMITDFFPEDITVEWQWNGQPAENYKNTQPIMDTDGSYFVYSKLNVQKSNWEAGNTFTCSVLHEGLHNHHTEKSLSHSPGKSQNPPVLKRHQREITRTTLQSDQEEIDYDDTISVEMKKEDFDIYDEDENQSPRSFQKKTRHYFIAAVERLWDYGMSSSPHVLRNRAQSGSVPQFKKVVFQEFTDGSFTQPLYRGELNEHLGLLGPYIRAEVEDNIMVTFRNQASRPYSFYSSLISYEEDQRQGAEPRKNFVKPNETKTYFWKVQHHMAPTKDEFDCKAWAYFSDVDLEKDVHSGLIGPLLVCHTNTLNPAHGRQVTVQEFALFFTIFDETKSWYFTENMERNCRAPCNIQMEDPTFKENYRFHAINGYIMDTLPGLVMAQDQRIRWYLLSMGSNENIHSIHFSGHVFTVRKKEEYKMALYNLYPGVFETVEMLPSKAGIWRVECLIGEHLHAGMSTLFLVYSNKCQTPLGMASGHIRDFQITASGQYGQWAPKLARLHYSGSINAWSTKEPFSWIKVDLLAPMIIHGIKTQGARQKFSSLYISQFIIMYSLDGKKWQTYRGNSTGTLMVFFGNVDSSGIKHNIFNPPIIARYIRLHPTHYSIRSTLRMELMGCDLNSCSMPLGMESKAISDAQITASSYFTNMFATWSPSKARLHLQGRSNAWRPQVNNPKEWLQVDFQKTMKVTGVTTQGVKSLLTSMYVKEFLISSSQDGHQWTLFFQNGKVKVFQGNQDSFTPVVNSLDPPLLTRYLRIHPQSWVHQIALRMEVLGCEAQDLY
